Where two headings read alike, the source gives them in different places.
Experiments:
AE.A244 gp120 delta 11 [1] = target: T1, AE.A244 gp120 delta 11 (HIV-1); assay: SPR, mAb captured on anti-Fc, monomeric gp120 injected
T1 construct: also called E.A244gp120Δ11; AE.A244 Δ11 gp120

AE.A244 gp120 delta 11 [2] = target: T1, AE.A244 gp120 delta 11
Env of AE.92TH023 virus = Env of AE.92TH023 virus (HIV-1); assay: cell-based or functional assay
Env of SHIV-BaL = Env of SHIV-BaL (SHIV); assay: cell-based or functional assay
Env of SHIV-1157ipd3N4 = Env of SHIV-1157ipd3N4 (SHIV); assay: cell-based or functional assay
Env of SHIV SF162P3 = Env of SHIV SF162P3 (SHIV); assay: cell-based or functional assay
Env of SHIV-SF162P4 = Env of SHIV-SF162P4 (SHIV); assay: cell-based or functional assay
Env of AE.CM244 virus = Env of AE.CM244 virus (HIV-1); assay: cell-based or functional assay
Env of B.MN virus = Env of B.MN virus (HIV-1); assay: cell-based or functional assay
Env of SHIV-1157ipEL-p = Env of SHIV-1157ipEL-p (SHIV); assay: cell-based or functional assay
B. 681-7 gp140C = assay: ELISA, OD405
Con 6 gp120 = assay: ELISA, OD405
B.HXB/BAL gp140CFI [3] = target: T2, B.HXB/BAL gp140CFI (HIV-1, UniProt P04578 33-680); assay: ELISA, OD405
T2 construct: also called B.HxB/Ba gp140 CFI

B.63521_V1V2 Tags = target: T3, B.63521_V1V2 Tags; assay: ELISA, OD405
T3 Env construct: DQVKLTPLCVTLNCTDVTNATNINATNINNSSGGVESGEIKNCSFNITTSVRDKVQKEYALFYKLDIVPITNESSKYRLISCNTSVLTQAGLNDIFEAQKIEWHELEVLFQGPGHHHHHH

B. 684-6 gp140C = assay: ELISA, OD405
B.62357 140C = target: T4, B.62357 140C; assay: ELISA, OD405
T4 construct: also called B.62357 gp140C

gp70 C.1086 V1/V2 = target: T5, gp70 C.1086 V1/V2 (HIV-1 V1V2 on murine leukemia virus gp70); assay: ELISA, OD405 at 10 ug/ml
T5 construct: also called C.gp70 1086C V1V2; C.1086gp70V1V2
T5 chain: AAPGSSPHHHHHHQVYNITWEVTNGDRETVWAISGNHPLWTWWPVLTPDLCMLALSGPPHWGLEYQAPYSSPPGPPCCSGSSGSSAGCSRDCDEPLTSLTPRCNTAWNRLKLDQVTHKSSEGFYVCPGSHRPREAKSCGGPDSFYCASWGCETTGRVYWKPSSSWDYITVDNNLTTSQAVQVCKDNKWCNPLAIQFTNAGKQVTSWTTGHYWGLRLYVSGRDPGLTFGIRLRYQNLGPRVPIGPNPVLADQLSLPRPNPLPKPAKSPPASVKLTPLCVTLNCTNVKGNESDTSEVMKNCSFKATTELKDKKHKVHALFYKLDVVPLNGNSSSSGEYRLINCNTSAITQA

D.9009SA V1/V2 tags [4] = assay: ELISA, OD405 at 10 ug/ml
J08 A.92RW020V1V2 = J08 A.92RW020V1V2 (HIV-1); assay: ELISA, OD405 at 10 ug/ml
B.040 gp140C = assay: ELISA, OD405 at 10 ug/ml
B.HXB/BAL gp140CFI [5] = target: T2, B.HXB/BAL gp140CFI; assay: ELISA, OD405 at 10 ug/ml
gp70 B.CaseA2 V1/V2 [6] = target: T6, gp70 B.CaseA2 V1/V2 (HIV-1 V1V2 on murine leukemia virus gp70); assay: ELISA, OD405 at 10 ug/ml
T6 construct: also called B.gp70CaseA2 V1/V2; gp70 B.CaseAV1V2
T6 chain: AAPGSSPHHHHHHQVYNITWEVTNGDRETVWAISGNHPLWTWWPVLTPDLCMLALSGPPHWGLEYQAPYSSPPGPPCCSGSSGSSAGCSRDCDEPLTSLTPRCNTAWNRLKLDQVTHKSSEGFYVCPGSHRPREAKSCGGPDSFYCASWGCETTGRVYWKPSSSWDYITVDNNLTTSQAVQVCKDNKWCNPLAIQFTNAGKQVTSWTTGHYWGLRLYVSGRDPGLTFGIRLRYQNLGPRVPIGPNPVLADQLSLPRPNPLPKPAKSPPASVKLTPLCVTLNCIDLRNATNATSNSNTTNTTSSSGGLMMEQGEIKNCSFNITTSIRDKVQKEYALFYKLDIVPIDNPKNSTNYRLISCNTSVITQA

B.9021 gp140C = B.9021 gp140C (HIV-1); assay: ELISA, OD405 at 10 ug/ml
D.9009SA V1/V2 tags [7] = assay: ELISA, OD405 at 10 ug/ml; remark: listed apart in the source
gp70 B.CaseA2 V1/V2 [8] = target: T6, gp70 B.CaseA2 V1/V2; assay: SPR (BIAcore), mAb captured on anti-Fc surface, V1V2 protein injected as analyte, Synagis surface subtracted, global 1:1 Langmuir fit
D.9009SA V1V2 Tags = target: T7, D.9009SA V1V2 Tags; assay: ELISA, OD405
T7 Env construct: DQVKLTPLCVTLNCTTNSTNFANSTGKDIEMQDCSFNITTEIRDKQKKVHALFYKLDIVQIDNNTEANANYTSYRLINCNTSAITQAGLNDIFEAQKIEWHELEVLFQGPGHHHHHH

B1: CH59 (antibody, V domains shown)
VH: EVQLVESGGGLVQPGRSLRLSCAASGFTFDDGAMHWVRQAPGKGLEWVSGISWNSNIIAYADSVKGRFTISRDNAKNSLYLEMNSLRVEDTALYYCAKDSPRGELPLNYWGQGTLVTVSS
VL: SYELTQPPSVSVSPGQTARITCSGDALPKNYAYWYQQKSGQAPVLVIYEDSKRPSGIPERFSGSSSGTMATLTISGAQVEDEADYYCYSTDSSGNHRVFGGGTKLTVL
notes: also called mAb CH59
Kd (AE.A244 gp120 delta 11 [1]): 2.2 nM
koff (AE.A244 gp120 delta 11 [2]): 0.00013 s⁻¹
kon (AE.A244 gp120 delta 11 [2]): 58300 M⁻¹ s⁻¹
EC50, neutralization of AE.TH023 (Env of AE.92TH023 virus): 12.1 µg/mL
EC50, neutralization of SHIV-BaL (Env of SHIV-BaL): > 50 µg/mL
EC50, neutralization of SHIV-1157ipd3N4 (Env of SHIV-1157ipd3N4): > 50 µg/mL
EC50, neutralization of SHIV SF162P3 (Env of SHIV SF162P3): > 50 µg/mL
EC50, neutralization of SHIV-SF162P4 (Env of SHIV-SF162P4): > 50 µg/mL
EC50, neutralization of AE.CM244 (Env of AE.CM244 virus): > 50 µg/mL
EC50, neutralization of B.MN (Env of B.MN virus): > 50 µg/mL
EC50, neutralization of SHIV-1157ipEL-p (Env of SHIV-1157ipEL-p): 24.6 µg/mL
binding result (B. 681-7 gp140C): no binding (tested: 10 ug/ml)
binding result (Con 6 gp120): no binding (tested: 10 ug/ml)
binding result (B.HXB/BAL gp140CFI [3]): no binding (tested: 10 ug/ml)
binding result (B.63521_V1V2 Tags): no binding (tested: 10 ug/ml)
binding result (B. 684-6 gp140C): no binding (tested: 10 ug/ml)
binding result (B.62357 140C): no binding (tested: 10 ug/ml)

B2: PG16 (antibody, V domains shown)
VH: QEQLVESGGGVVQPGGSLRLSCLASGFTFHKYGMHWVRQAPGKGLEWVALISDDGMRKYHSDSMWGRVTISRDNSKNTLYLQFSSLKVEDTAMFFCAREAGGPIWHDDVKYYDFNDGYYNYHYMDVWGKGTTVTVSS
VL: QSALTQPASVSGSPGQTITISCNGTSSDVGGFDSVSWYQQSPGKAPKVMVFDVSHRPSGISNRFSGSKSGNTASLTISGLHIEDEGDYFCSSLTDRSHRIFGGGTKVTVL
notes: also called mAb PG16; bnAb PG16
binding result (gp70 C.1086 V1/V2): no binding (tested: 10 ug/ml)
binding result (D.9009SA V1/V2 tags [4]): no binding (tested: 10 ug/ml)
binding result (J08 A.92RW020V1V2): no binding (tested: 10 ug/ml)
binding result (B.040 gp140C): no binding (tested: 10 ug/ml)
binding result (B.HXB/BAL gp140CFI [5]): no binding (tested: 10 ug/ml)
binding result (gp70 B.CaseA2 V1/V2 [6]): no binding (tested: 10 ug/ml)
binding result (B.9021 gp140C): no binding (tested: 10 ug/ml)

B3: 697D (antibody, V domains shown)
VH: QVQLVQSGAEVKKPGSSVKVSCKASGGNFNTYTISWVRQAPGQGLEWMGRIIPIFGIVNPAQKFPGRVTINVDKSTNTAYMELSSLRSEDTAVYYCATSGVGLHFGYFDYWGQGTQVTVSS
VL: QSVLTQPPSVSGAPGQRVTISCTGSSSNIGAHYDVHWYQQLPGTAPKLLIYGNSNRPSGVPDRFSGSKSGTSASLAITGLQAEDEADYYCQSYDSSLSGYVFGTGTKVTVL
notes: also called mAb 697D; V2 conformational mAb 697D
binding result (D.9009SA V1/V2 tags [7]): no binding (tested: 10 ug/ml)
Kd (gp70 B.CaseA2 V1/V2 [8]): 36.5 nM
koff (gp70 B.CaseA2 V1/V2 [8]): 0.00038 s⁻¹
kon (gp70 B.CaseA2 V1/V2 [8]): 10000 M⁻¹ s⁻¹
binding result (D.9009SA V1V2 Tags): no binding (tested: 10 ug/ml)
